Source: publication PMC10943695, “Neutrophil elastase as a versatile cleavage enzyme for activation of αvβ3 integrin-targeted small molecule drug conjugates with different payload classes in the tumor microenvironment” (Frontiers in Pharmacology, 2024)
Entries after “also recorded” stand apart in the source; their conditions may differ. Read-outs that look alike come from different tables or passages of the source.

Legend:
786-O (human RCC) cells = assay: In vitro cytotoxicity, MTT assay, in absence or presence of neutrophil elastase; assay type: cell-based; settings: 72 h exposure
Experimental: (§1) 786-O (human RCC), HT-29 (human CRC), NCI-H292 (human NSCLC), NCI-H69 (human SCLC), MX-1 (human TNBC), and SUM149PT (human IBC) cells were acquired from ATCC and cultured according to the provider’s instructions.
(§2) The in vitro cytotoxicity of the SMDCs in comparison to the respective payloads was tested in a panel of cancer cell lines after a 72 h continuous exposure in presence or absence of 20 nM neutrophil elastase using MTT assays (ATCC). IC50 values were determined as the concentration of compound required for 50% inhibition of cell viability.

HT-29 (human CRC) cells = assay: as above; assay type: cell-based; settings: 72 h exposure
Experimental: as §1, §2

[1] = test system: NCI-H292 (human NSCLC) cells; assay: as above; assay type: cell-based; settings: 72 h exposure
Experimental: as §1, §2

[2] = test system: SUM149PT (human IBC) cells; assay: as above; assay type: cell-based; settings: 72 h exposure
Experimental: as §1, §2

[3] = Hydrolytic stability in PBS buffer at pH 7.4; assay type: physicochemical; settings: PBS pH 7.4, 37 °C, 24 h
Experimental: For hydrolytic stability measurement, compounds 2, 3, 4, 5 and 6 (0.15 mg) were dissolved in acetonitrile/DMSO (4:1, 0.5 mL) and 1 mL of PBS buffer at pH 7.4 was then added. The sample solution was analyzed by HPLC to determine the amount of the test compound and the formation of degradation products over a period of 24 h at 37 °C.

Stability in rat plasma = assay type: in vitro ADME; settings: 37 °C
Experimental: The SMDC compounds 2, 3, 4, 5 and 6 (1 mg) were dissolved in acetonitrile/DMSO (1:1, 0.5 mL). While vortexing, 20 µL of this solution was added to 1 mL rat plasma at 37 °C. The incubation was stopped at respective time intervals by adding acetonitrile/buffer pH 3 (80:20) and the test compounds and formation of degradation products were analyzed by LC and LC/MS.

[4] = Stability in human plasma; assay type: in vitro ADME; settings: 37 °C
[5] = molecular target: T1, human neutrophil elastase (Homo sapiens, UniProt P08246); assay: Human neutrophil elastase cleavability assay; assay type: biochemical; settings: 5 µM SMDC, 20, 40, 60 nM NE, 1 h, 37°C
T1 sequence (P08246 30-267): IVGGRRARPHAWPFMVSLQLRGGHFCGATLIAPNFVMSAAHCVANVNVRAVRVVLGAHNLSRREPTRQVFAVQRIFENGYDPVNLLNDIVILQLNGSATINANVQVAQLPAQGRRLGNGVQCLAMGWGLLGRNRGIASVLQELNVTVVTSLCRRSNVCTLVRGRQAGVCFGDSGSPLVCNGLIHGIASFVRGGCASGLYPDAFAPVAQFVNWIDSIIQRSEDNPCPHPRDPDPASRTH
Experimental: For the NE cleavability assay, the SMDC test compound was added to buffer (150 mM NaCl, 10 mM CaCl2, 0.05% BSA) to a final concentration of 5 µM (0.5% DMSO). The reaction was started by adding different concentrations of human NE (0, 20, 40, 60 nM) to the reaction vials. After incubation for 1 h at 37°C, the enzymatic reaction was stopped by precipitation in 50% ACN. Subsequently, the samples were subjected to HPLC-MS analysis to determine the concentration of test compound and of its metabolite.

[6] = Intravenous pharmacokinetics in rat; assay type: in vivo; settings: male Wistar rats, 0.5 mg/kg SMDC i.v., plasma; for AUC(0-inf) / half-life / clearance / Vd: rat, iv; for clearance: read-out: CLp; for Vd: read-out: Vss
Experimental: Pharmacokinetic properties of SMDCs and their respective payloads were characterized in rats. Briefly, male Wistar rats (n = 3) were given a 0.5 mg/kg dose of SMDC formulated in plasma/DMSO (99:1) intravenously (i.v.) via tail vein. Blood was collected at pre-dose, 2, 5, 15, 30, 45, 60 min, 2, 4, 7, 24 h post-dose and then processed to plasma. Plasma was frozen at < −20°C until sample analysis. Plasma samples were analyzed for concentrations of SMDCs and their respective released payloads by LC-MS/MS.
(§3) Pharmacokinetics of SMDCs and their respective payloads from in vivo studies were determined using mean concentration-time profiles. All pharmacokinetic parameters were calculated by non-compartmental methods as previously described ([Perrier and Gibaldi, 1982]).

[7] = Plasma and tumor pharmacokinetics in NCI H69 tumor-bearing mice; assay type: in vivo; settings: single dose Compound 3 10 mg/kg IV, analyte conjugate 3 or released payload 8
Experimental: In order to assess the selective concentration of payload to tumor tissue, the pharmacokinetic properties of the SMDC 3 and its payload 8, in plasma and tumor was also characterized in female NMRI nu/nu xenograft mice (Taconic M&B A/S) bearing NCI H69 human small cell lung cancer tumors. The mice were treated i. v. via the tail vein with a single dose of 3 at 10 mg/kg. Plasma and tumor samples were collected at 0.25, 1, 7, and 24 h after treatment (n = 2 mice/group at each time point) and were stored frozen at < −20°C until sample analysis. Concentrations of the SMDCs and their respective payloads were measured by LC-MS/MS.
as §3

NCI H69 SCLC xenograft = assay: In vivo efficacy in NCI H69 SCLC xenograft model; design: species or system mice; settings: for Body weight changes: NCI H69 model, QWx2 (4: 5 mg/kg; 6: 40 mg/kg)
Experimental: For the NCI H69 study, immunocompromised mice were inoculated subcutaneously with 1.3 × 10^6 NCI H69 cells in 50% Matrigel/50% Media on day 0. Treatment was started at a mean tumor area in the range of […] in the NCI H69 model (n = 8/group, compound 4 at 5 mg/kg i. v., QW, and compound 6 at 40 mg/kg i. v., QW). In an independent experiment in the same CDX xenograft model compound 3 was tested at 10 mg/kg i. v., QW.

[8] = with 20 nM neutrophil elastase, read-out: IC50 786–0 + neutrophil elastase
[9] = without neutrophil elastase, read-out: IC50 786–0
[10] = with 20 nM neutrophil elastase, read-out: IC50 HT29 + neutrophil elastase
[11] = without neutrophil elastase, read-out: IC50 HT29
[12] = with 20 nM neutrophil elastase, read-out: IC50 NCI-H292 + neutrophil elastase
[13] = without neutrophil elastase, read-out: IC50 NCI-H292
[14] = with 20 nM neutrophil elastase, read-out: IC50 SUM149 PT + neutrophil elastase
[15] = without neutrophil elastase, read-out: IC50 SUM149PT

CCCNC(=O)Nc1cccc(S(=O)(=O)Nc2cccc([C@@H](CC(=O)O)NC(=O)Nc3ccc(NC(=O)NCCOCCOCCOCCC(=O)N[C@@H](CC(=O)O)C(=O)N4CCC[C@H]4C(=O)N[C@H](C(=O)N=S(C)(=O)Cc4cc5cc(c4)OC(C)CCOc4cc(F)ccc4-c4nc(ncc4F)N5)C(C)C)cc3)c2)c1 (stereo partly drawn) [Compound 3]
IC50 (786-O (human RCC) cells; [8]): 3.1 nM
IC50 (786-O (human RCC) cells; [9]): > 1000 nM
IC50 (HT-29 (human CRC) cells; [10]): 1.9 nM
IC50 (HT-29 (human CRC) cells; [11]): 990 nM
IC50 [1, 12]: 4.5 nM
IC50 [1, 13]: 880 nM
IC50 [2, 14]: 1.2 nM
IC50 [2, 15]: 770 nM
Stability in buffer pH 7.4 [3]: highly stable
Stability in rat plasma (Stability in rat plasma): highly stable
Stability in human plasma [4]: highly stable
Cleavage by human NE [5]: essentially completely cleaved
Vss [6]: comparable to plasma volume
payload/parent AUC ratio ([6]; molar basis, 0.5 mg/kg): 0.307
AUC(0-inf) ([6]; in vivo): 0.801 ± 0.126 µM·h
half-life ([6]; in vivo): 14.4 ± 3 min
clearance ([6]; in vivo): 6.6 ± 0.95 mL/min/kg
Vd ([6]; in vivo): 0.0366 ± 0.0053 L/kg
AUC(0-t) ([7]; mouse, in vivo, plasma): 43 µM·h
Cmax ([7]; mouse, in vivo, plasma): 49 µM
tumor/plasma AUC ratio [7]: 0.126
Tumor growth NCI H69 (NCI H69 SCLC xenograft; 10 mg/kg i.v. weekly, 3 treatment cycles): No significant inhibition

CCCNC(=O)Nc1cccc(S(=O)(=O)Nc2cccc([C@@H](CC(=O)O)NC(=O)Nc3ccc(NC(=O)NCCOCCOCCOCCC(=O)N[C@@H](CC(=O)O)C(=O)N4CCC[C@H]4C(=O)N[C@H](C(=O)O[C@@H](c4ccccc4)[C@@H](C)NC(=O)[C@H](C)[C@@H](OC)[C@@H]4CCCN4C(=O)C[C@@H](OC)[C@H]([C@@H](C)CC)N(C)C(=O)[C@@H](NC(=O)[C@@H](NC)C(C)C)C(C)C)C(C)C)cc3)c2)c1 [Compound 4]
IC50 (786-O (human RCC) cells; [8]): 6.6 nM
IC50 (786-O (human RCC) cells; [9]): 660 nM
IC50 (HT-29 (human CRC) cells; [10]): 0.43 nM
IC50 (HT-29 (human CRC) cells; [11]): 78 nM
IC50 [1, 12]: 0.35 nM
IC50 [1, 13]: 71 nM
IC50 [2, 14]: 0.51 nM
IC50 [2, 15]: 50 nM
Stability in buffer pH 7.4 [3]: highly stable
Stability in rat plasma (Stability in rat plasma): highly stable
Stability in human plasma [4]: highly stable
AUC(0-inf) [6]: 3.03 ± 0.11 µM·h
half-life [6]: 138 ± 57 min
clearance [6]: 1.47 ± 0.06 mL/min/kg
Vd [6]: 0.157 ± 0.015 L/kg
Body weight changes (NCI H69 SCLC xenograft): very minor

CCCNC(=O)Nc1cccc(S(=O)(=O)Nc2cccc([C@@H](CC(=O)O)NC(=O)Nc3ccc(NC(=O)NCCOCCOCCOCCC(=O)N[C@@H](CC(=O)O)C(=O)N4CCC[C@H]4C(=O)N[C@H](C(=O)N[C@@H](CCN(C(=O)CO)[C@@H](c4cc(-c5cc(F)ccc5F)cn4Cc4ccccc4)C(C)(C)C)C(=O)NC)C(C)C)cc3)c2)c1 [Compound 6]
IC50 (786-O (human RCC) cells; [8]): 8.7 nM
IC50 (HT-29 (human CRC) cells; [10]): 1.7 nM
IC50 [1, 12]: 1.3 nM
IC50 [2, 14]: 0.6 nM
Stability in buffer pH 7.4 [3]: Very small fractions of a degradation product; also recorded: highly stable
Stability in rat plasma (Stability in rat plasma): highly stable
Stability in human plasma [4]: highly stable
Vss [6]: comparable to plasma volume
AUC(0-inf) [6]: 2.98 ± 0.25 µM·h
half-life [6]: 26.5 ± 1.38 min
clearance [6]: 1.69 ± 0.15 mL/min/kg
Vd [6]: 0.0377 ± 0.005 L/kg
Body weight changes (NCI H69 SCLC xenograft): very minor
